Reference: patent US11485776B2, “Antibodies against infectious diseases” (priority 2015, dated 2022)

Columns and labels:
[1] = tested on: binding of C. albicans cells to human oral keratinocyte OECM-1 cells; assay: Adhesion assay of C. albicans to OECM-1 cells; format: cell-based; details: 50 μg and 100 μg, vs PBS control
Method: C. albicans were mixed with 1×PBS, 50 ug or 100 ug CaS1 scFv at 37° C. for 1 hr and added into OECM-1 cells in culture wells as described in the text. After being washed, cells attached to C. albicans were detected by adding HRP-conjugated anti-C. albicans antibodies.
Cell adhesion assay was performed using human oral epidermal cells (OECM-1) (XXX). C. albicans (1×10^6 cfu) were pre-incubated with CaS1 scFv antibodies ([…]) at 37° C. for 1 hr. After incubation, the mixtures were two-fold diluted and added onto 10^4 OECM-1 cells cultured in 96-well plates. The plates were further incubated at 4° C. for 2 hrs. After being washed three times with 1×PBS, the plates were fixed with 10% formaldehyde. After being washed as above, the wells were blocked with skim milk for 1 hr. Thereafter, rabbit anti-C. albicans antibodies (1:3,000, Bethyl, USA) were added and incubated for another 1 hr, followed by adding the HRP-conjugated anti-rabbit antibodies (1:3,000, Bethyl, USA). Washings as above were always carried out between steps. TMB was used for color development, which was stopped with 1 N HCl. The intensity of the color was measured at 450 nm on an ELISA plate reader.
C. albicans cells (1×10^6) were treated with 50 μg and 100 μg of scFv CaS1, respectively, and the resulting mixtures were added to human oral keratinocyte OECM-1 cells to test the binding ability of C. albicans cells to OECM-1 cells.

C. albicans [2] = assay: C. albicans hyphal formation; format: cell-based; details: CaS1 scFv pre-incubated with 10^3 cfu, 5 days at 37° C.
Method: (§1) (A) C. albicans were cultured in YPD medium overnight at 37° C. 10^8 cfu/ml of C. albicans was mixed with equal volume of 0.5 mg/ml anti-CaENO1 IgY, 0.5 mg/ml CaS1 scFv or 1×PBS, respectively, at room temperature for 1 hr. 1 ul of each mixture in 10× dilutions was spotted on YPD agar plate and incubated at 37° C. overnight. (B) 10^3 cfu of C. albicans was mixed with PBS (control), 10 or 100 µg/ml CaS1 scFv at room temperature for 1 hr. 1 ul of each mixture was spotted on YPD agar plate and incubated at 37° C. for 5 days. The hyphal formation was observed under the microscope.
(§2) To determine the effect of scFv antibodies on the cell growth and hyphal formation, anti-CaENO1 IgY (0.5 mg/ml) or CaS1 scFv (0.5 mg/ml) or PBS were pre-incubated with C. albicans (1×10^6 cfu) for 1 hr at 37° C. After incubation, 1 ul of each mixture in 10-fold dilutions was spotted on YPD agar plate and incubated at 37° C. overnight. 10^3 cfu of C. albicans was mixed with 0 (1×PBS control), 10 or 100 µg/ml CaS1 scFv at room temperature for 1 hr. Thereafter, 1 ul of each mixture was spotted on YPD agar plate and incubated at 37° C. for 5 days. […].
So we further investigated whether CaS1 scFv affects the hyphal formation. We pre-incubated CaS1 scFv with C. albicans and the colony morphology was examined. […]

CaENO1 = molecular target: T1, CaENO1 (Candida albicans, UniProt P30575); assay: Western blot on purified ENO1 protein of C. albicans; format: binding
T1 construct: using full-length CaENO1 (1323 bp) as template; His (N); made in house; host or cells: E. coli BL21
Source text: (A) The total cell lysates of 5 Candida spp. were visualized on SDS-PAGE (left). After transferred onto the NC membranes, they were probed with purified anti-CaENO1 from 7th immunized chicken (1:3,000) (middle), or with CaS1 scFv (right) as described in material and methods. Lanes 1-6 in (A) contained the total cell lysates of C. albicans, C. krusei, C. tropicalis, C. parapsilosis and C. glabrate and purified recombinant CaENO1, respectively. […] (C) Total cell lysate from FLU^R and FLU^s and C. tropicalis (lanes 1-5 represent CT6-29, CT11-52, CT6-50, CT12-54, BCRC20520, respectively) by SDS-PAGE (left) and probed with CaS1 scFv by Western blot (right). (D) The purified ENO1 proteins of C. albicans, S. pneumonia, S. aureus, mouse and human were visualized on SDS-PAGE (left). After transferred onto the NC membranes, they were probed with purified CaS1 scFv (right) as described. Lane M contained protein markers.
Briefly, C. albicans alpha-enolase genes were constructed in pQE30 plasmids to form pQE30-CaENO1 vector, and then the resulting vectors were transformed with E. coli BL21 cells. The bacterial culture was grown in 10 ml LB medium containing ampicillin ([…]) at 37° C. overnight, diluted 10-fold in the same LB medium and further grown until the OD600 reached between 0.6 and 1.0. […]

C. albicans [3] = assay: C. albicans growth on YPD agar plate; format: cell-based; details: 0.5 mg/ml antibody pre-incubated 1 hr, 10x dilutions spotted
Method: as §1, §2
We evaluated the influence of CaS1 on growth of C. albicans, we pre-incubated CaS1 scFv with C. albicans and plated on the agar.

T1 sequence (P30575 whole entry): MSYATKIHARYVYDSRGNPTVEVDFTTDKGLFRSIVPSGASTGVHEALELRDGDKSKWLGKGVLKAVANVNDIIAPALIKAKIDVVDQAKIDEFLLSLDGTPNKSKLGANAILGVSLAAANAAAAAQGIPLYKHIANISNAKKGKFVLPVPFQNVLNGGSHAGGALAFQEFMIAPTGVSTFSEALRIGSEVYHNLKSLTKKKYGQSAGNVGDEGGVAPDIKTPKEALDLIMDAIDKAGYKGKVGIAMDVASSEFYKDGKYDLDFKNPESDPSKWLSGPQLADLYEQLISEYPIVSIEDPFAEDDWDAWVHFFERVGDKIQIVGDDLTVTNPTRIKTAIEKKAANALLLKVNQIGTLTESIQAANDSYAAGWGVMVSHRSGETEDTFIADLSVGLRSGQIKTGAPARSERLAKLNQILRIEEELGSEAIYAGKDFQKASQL

B1: CaS1 scFv: anti-CaENO1 scFv monoclonal antibody from chicken phage library; light chain SEQ ID NO:11, heavy chain SEQ ID NO:12 (antibody, V domains shown)
VH: TVTLDESGGGLQTPRGALSLVCKASGFTFIDYGMQWVRQAPGKGLEWVAGIGSSGSSTNYGAAVKGRATISRDDGQSTVRLQLNNLRAEDTGTYYCAKSAGGYCVNGAGCNGGSIDAWGHGTEVIVSS
VL: ALTQPSSVSANLGGTVKITCSGGSGSYGWYQQKSPGSAPVTVIYSNNQRPSNIPSRFSGSPSGSTGTLTITGVQADDEAVYFCGSRDSSYVGVFGAGTTLTVL
modifications: scFv linker; amino acid sequence comprised in a heavy chain of an anti-CaENO1 scFv monoclonal antibody (CaS1); amino acid sequence comprised in a light chain of an anti-CaENO1 scFv monoclonal antibody (CaS1)
Binding of C. albicans cells to OECM-1 cells ([1]; listed as CaS1): inhibited its adherence | Binding of C. albicans cells to OECM-1 cells ([1]; listed as CaS1 ScFv): inhibited | Binding of C. albicans cells to OECM-1 cells ([1]; listed as scFv CaS1): significantly reduced | Hyphal formation (C. albicans [2]): very little or none were observed | Binding to purified CaENO1 (Western blot) (CaENO1): bind and recognizes | C. albicans growth on YPD agar plate (C. albicans [3]): decreased C. albicans growth | C. albicans growth on YPD agar plate (C. albicans [3]; listed as CaS1): attenuated the growth
